Measured values: patent US20260070986A1 (AFFIMED, published 2026)

What was measured:
[1] = target: T1, recombinant human neonatal Fc receptor (FcRn), biotinylated (human, UniProt P55899 24-297, site-directed biotinylation at AviTag); assay: SPR (Biacore T200), 37 C, pH 6.0, biotin-captured FcRn, steady-state affinity
T1 construct: also called human FcRn
Experimental: (§1) Sensor chips were pre-equilibrated in HBS-P+ running buffer for 12 hours prior to the first measurement and the detectors were normalized using BIAnormalization solution (70% w/w glycerol) according to the manufacturer's instructions.
(§2) Interaction analysis of FcRn binding was performed at pH 6.0 in PBS/0.05% Tween 20; analytes and ligands were diluted in the same buffer. […] Ligand-free surfaces in FC1 and FC3 were used as references for response signals (FC2-1, FC4-3). Interaction analysis of CD64, CD32, and murine CD16-2 binding was performed in HBS-P+ buffer and analytes and ligands were diluted in the same buffer. Biotinylated Fcγ-Receptors were captured to a density of approximately 15 to 30 RU (FC2, FC3, and FC4) before increasing concentrations (500 nM to 4000 nM) of antibody were injected, using the single-cycle kinetic mode (FC1-FC4) at a flow rate of 40 μL/min for 100 seconds followed by dissociation for 90 seconds. A zero-concentration cycle and ligand-free surface in FC1 was used for referencing of response signals (FC2-1, FC3-1, and FC4-1). Sensor chip surfaces were prepared and regenerated before and after each measurement using Biotin Capture reagent (Biotin CAPture Kit, GE Healthcare) and 6 M guanidine-HCl, 0.25 M NaOH, respectively.
(§3) Binding affinities were determined by fitting data using the steady state affinity model of the Biacore T200 Evaluation software (v3.1).

[2] = target: T2, recombinant cynomolgus neonatal Fc receptor (FcRn), biotinylated (cynomolgus, UniProt Q8SPV9 24-297, limits assumed, site-directed biotinylation at AviTag); assay: as above
T2 construct: also called cynomolgus FcRn
T2 sequence (Q8SPV9 24-297 limits assumed, form in doubt): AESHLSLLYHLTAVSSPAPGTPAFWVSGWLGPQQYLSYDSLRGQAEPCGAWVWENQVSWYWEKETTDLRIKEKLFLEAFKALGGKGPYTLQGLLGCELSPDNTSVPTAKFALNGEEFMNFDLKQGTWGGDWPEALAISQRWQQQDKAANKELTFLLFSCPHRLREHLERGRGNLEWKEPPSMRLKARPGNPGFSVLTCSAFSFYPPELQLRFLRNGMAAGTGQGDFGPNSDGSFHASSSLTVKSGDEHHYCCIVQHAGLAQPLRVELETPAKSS
Experimental: as §1, §2, §3

[3] = target: T3, human CD16A (158F) on transfected CHO cells (cAg_34) (human, UniProt P08637 17-254); assay: flow cytometry on huCD16A-transfected CHO cells, anti-human IgG-APC detection
T3 construct: Exact cell-anchored construct not described; also called huCD16A
T3 sequence (P08637 17-254 limits assumed): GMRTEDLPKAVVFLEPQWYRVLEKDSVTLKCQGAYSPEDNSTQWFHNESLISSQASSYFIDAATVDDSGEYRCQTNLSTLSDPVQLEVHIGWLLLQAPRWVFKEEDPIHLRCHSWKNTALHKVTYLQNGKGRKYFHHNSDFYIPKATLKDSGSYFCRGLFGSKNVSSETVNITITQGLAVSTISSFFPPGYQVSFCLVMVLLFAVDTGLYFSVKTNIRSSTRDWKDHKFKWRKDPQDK
Experimental: To analyze binding of different antibody constructs to CHO cells transfected with human CD16A (cAg_34), relative to CD16 expression by flow cytometry, 1-2×10⁵ were resuspended in 100 μL FACS buffer (PBS (Invitrogen, cat.: 14190-169) containing 2% heat-inactivated FCS (Invitrogen, cat.: 10270-106), and 0.1% sodium azide (Roth, Karlsruhe, Germany, cat.: A1430.0100)) in round-bottom 96-well microtiter plates. After washing in FACS buffer, cells were incubated in 50 μL FACS buffer without antibodies or with titrated antibodies starting at a concentration of 100 μg/mL followed by ten 5-fold serial dilutions for 30 min on ice in the dark. After washing twice, cells were incubated with APC-conjugated goat anti-human IgG (H+L)-APC (Dianova, cat. 109-136-088) for 30 min on ice in the dark. […] After washing, binding was measured by flow cytometry and mean fluorescence intensities (MFI) of cell samples were calculated and corrected for background staining using control cells stained with secondary antibodies only.
(§4) Equilibrium dissociation constants (KD) of antibody binding were calculated by plotting MFI values and fitting a non-linear regression model for one-site binding to hyperbolic dose-response curves using GraphPad Prism.

[4] = target: T3, human CD16A (158F) on transfected CHO …; assay: flow cytometry on huCD16A-transfected CHO cells (cAg_34), one-site fit of MFI, experiment 1
Experimental: After washing in FACS buffer, cells were incubated in 50 μL FACS buffer without antibodies or with titrated antibodies starting at a concentration of 100 μg/mL followed by ten 5-fold serial dilutions for 30 min on ice in the dark. After washing twice, cells were incubated with APC-conjugated goat anti-human IgG (H+L)-APC (Dianova, cat. 109-136-088) for 30 min on ice in the dark. […] After washing, binding was measured by flow cytometry and mean fluorescence intensities (MFI) of cell samples were calculated and corrected for background staining using control cells stained with secondary antibodies only.
as §4

[5] = target: T1, recombinant human neonatal Fc receptor …; assay: SPR (Biacore), 37 °C, pH 6.0, biotin-captured human FcRn as ligand, steady-state affinity fit
Experimental: Affinity parameters were evaluated for interaction with human FcRn, cynomolgus FcRn or murine FcRn using a Steady State Binding model (D-F).

[6] = target: T4, recombinant human FcγRIIB (CD32B), biotinylated (human, UniProt P31994 43-217, limits assumed, site-directed biotinylation at AviTag); assay: SPR (Biacore), 37 °C, biotin-captured human CD32B as ligand, steady-state plot; left-hand column, no heading on the sheet
T4 construct: also called human CD32B
T4 sequence (looked up): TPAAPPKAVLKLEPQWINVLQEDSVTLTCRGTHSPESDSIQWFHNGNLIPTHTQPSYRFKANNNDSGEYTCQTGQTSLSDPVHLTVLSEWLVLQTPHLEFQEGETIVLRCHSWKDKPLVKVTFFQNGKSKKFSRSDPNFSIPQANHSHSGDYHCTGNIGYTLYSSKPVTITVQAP
Experimental: FIG. 21: SPR interaction analysis of antibody binding to CD32. […] Affinity parameters were evaluated for interaction with receptors using a Steady State Binding model.

[7] = target: T5, recombinant murine FcγRIV (CD16-2), biotinylated (murine, UniProt A0A0B4J1G0 21-203, biotinylated (site not stated)); assay: SPR (Biacore), 37 °C, biotin-captured murine CD16-2 as ligand, steady-state plot; left-hand column, no heading on the sheet
T5 construct: also called murine CD16-2; mouse CD16-2; not shown: biotinylation or purification tag (AviTag according to our card)
T5 sequence: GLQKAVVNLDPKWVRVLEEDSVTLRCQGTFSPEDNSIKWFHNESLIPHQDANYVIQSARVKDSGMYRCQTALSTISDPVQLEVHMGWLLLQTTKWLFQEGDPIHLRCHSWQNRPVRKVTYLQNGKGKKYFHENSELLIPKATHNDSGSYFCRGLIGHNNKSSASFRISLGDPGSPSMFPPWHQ
Experimental: FIG. 20: SPR interaction analysis of antibody binding to CD64 and murine CD16-2. […] Affinity parameters were evaluated for interaction with receptors using a Steady State Binding model.

T1 sequence (P55899 24-297 limits assumed, form in doubt): as the sequence (Q8SPV9 24-297 limits assumed, form in doubt) above, with D39N, Q44E, S99G, G189S, N190S, M217L, T269S counted along it

- Kd [1]: 364 nM
- Kd [2]: 238 nM
- EC50 (read off the curve) [3]: ~8 nM
- Kd [4]: 17.7 nM
- Kd [5]: 364 nM
- binding result [6]: no binding
- binding result [7]: no binding
B1: scFv-IgAb_268 (CD123-1xCD16a1) (bispecific antibody)
heavy: QVQLQQSGAEVKKPGASVKVSCKASGYTFTDYYMKWVKQSHGKSLEWMGDIIPSNGATFYNQKFKGKATLTVDRSTSTAYMELSSLRSEDTAVYYCARSHLLRASWFAYWGQGTLVTVSSASTKGPSVFPLAPSSKSTSGGTAALGCLVKDYFPEPVTVSWNSGALTSGVHTFPAVLQSSGLYSLSSVVTVPSSSLGTQTYICNVNHKPSNTKVDKKVEPKSCDKTHTCPPCPAPEFEGGPSVFLFPPKPKDTLMISRTPEVTCVVVAVSHEDPEVKFNWYVDGVEVHNAKTKPREEQYNSTYRVVSVLTVLHQDWLNGKEYKCKVSNKALPAPIEKTISKAKGQPREPQVYTLPPSREEMTKNQVSLTCLVKGFYPSDIAVEWESNGQPENNYKTTPPVLDSDGSFFLYSKLTVDKSRWQQGNVFSCSVMHEALHNHYTQKSLSLSPGGGGGSGGGGSGGGGSGGGGSGGGGSGGGGSSYELTQPLSVSVALGQTARITCGGNNIGSKSVHWYQQKPGQAPVLVIYQDKKRPSGIPERFSGSNSGNTATLTISRAQAGDEADYYCQVWDDYIVLFGCGTKLTVLGGSGGSGGSGGSGGSGGSGGSQVQLVQSGAEVKKPGASVKVSCKASGYTFTNYYMQWVRQAPGQCLEWMGIINPSGGVTSYAQKFQGRVTMTRDTSTSTVYMELSSLRSEDTAVYYCARGSAYYYDFADYWGQGTLVTVSS
light: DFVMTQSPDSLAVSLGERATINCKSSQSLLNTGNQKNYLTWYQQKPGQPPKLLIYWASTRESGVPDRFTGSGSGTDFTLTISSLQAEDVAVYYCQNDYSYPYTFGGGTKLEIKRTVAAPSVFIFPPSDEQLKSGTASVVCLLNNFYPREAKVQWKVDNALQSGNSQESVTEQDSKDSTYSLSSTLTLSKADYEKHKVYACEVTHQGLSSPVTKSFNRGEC
notes: also called AFM28; CD123xCD16A scFv-IgAb_268
